From US20110014200A1

How the values were obtained:
[1] = molecular target: gain-of-function TSHR mutant A623I (human) (UniProt P16473); experiment: cell-based or functional assay
[2] = molecular target: gain-of-function TSHR mutant I486F (human) (UniProt P16473); experiment: cell-based or functional assay
[3] = molecular target: gain-of-function TSHR mutant I568T (human) (UniProt P16473); experiment: cell-based or functional assay
[4] = molecular target: gain-of-function TSHR mutant S281I (human) (UniProt P16473); experiment: cell-based or functional assay
[5] = molecular target: wild-type human thyrotropin receptor (TSHR) (human) (UniProt P16473); experiment: cell-based or functional assay
[6] = molecular target: wild-type human thyrotropin receptor (TSHR) (human) (UniProt P16473); experiment: inhibition of 125I-TSH binding to monolayers of cells expressing human TSHR

CS-17 concentration producing half-maximal inhibition (IC50) of constitutive cAMP [1]: 1 µg/mL
CS-17 concentration producing half-maximal inhibition (IC50) of constitutive cAMP [2]: 1 µg/mL
CS-17 concentration producing half-maximal inhibition (IC50) of constitutive cAMP [3]: 1 µg/mL
CS-17 concentration producing half-maximal inhibition (IC50) of constitutive cAMP [4]: 1 µg/mL
CS-17 concentration producing half-maximal inhibition (IC50) of constitutive cAMP [5]: 1 µg/mL
half maximal inhibitory concentration for TSHR constitutive activity (intracellular cAMP) [5]: 6.7 nM
inverse agonist activity at 10 µg/ml (percent) [5]: 60 to 90%
reduction of constitutive activity at 10 µg/ml (percent) [5]: > 60%
percent suppression of TSH binding at 10 µg/ml [6]: 35%
Substance: monoclonal antibody CS-17 (produced by hybridoma CS-17, ATCC accession number PTA-8174)
